Results as given in paper PMC4239081, “Differential Interaction Kinetics of a Bipolar Structure-Specific Endonuclease with DNA Flaps Revealed by Single-Molecule Imaging”.

Tests used:
PCNA (Pyrococcus abyssi) = PCNA (Pyrococcus abyssi) (UniProt Q9UYX8); settings: cited from earlier work
NucS (PabNucS) [1] = molecular target: T1, NucS (PabNucS) (Pyrococcus abyssi, UniProt Q9V2E8 1-251); assay: single-molecule TIRF (koff/kon); 150 mM NaCl, 23 C, no divalent cations; koff 0.076 s-1; Imaging buffer B2: 20 mM HEPES, 150 mM NaCl (or 50 mM), 0.1 mg/ml casein Blocking Reagent; pH not given; 23 C without divalent cations, or 45 C with or without; settings: protein: recombinant; tags: Alexa488 label; chain copies: 2; label: Alexa488 on F3D47; 3' flap of 20 nt at ss/dsDNA junction; three strands
T1 sequence: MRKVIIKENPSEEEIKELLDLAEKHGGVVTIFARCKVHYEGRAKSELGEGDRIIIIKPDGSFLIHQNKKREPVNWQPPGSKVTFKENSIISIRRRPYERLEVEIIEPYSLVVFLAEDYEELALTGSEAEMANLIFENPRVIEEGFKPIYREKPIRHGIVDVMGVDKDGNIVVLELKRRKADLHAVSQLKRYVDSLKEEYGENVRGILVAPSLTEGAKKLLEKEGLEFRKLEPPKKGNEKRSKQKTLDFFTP

NucS (PabNucS) [2] = molecular target: T1, NucS (PabNucS); assay: single-molecule TIRF (koff/kon); 50 mM NaCl, 23 C, no divalent cations; koff 0.52 s-1; Imaging buffer B2: 20 mM HEPES, 150 mM NaCl (or 50 mM), 0.1 mg/ml casein Blocking Reagent; pH not given; 23 C without divalent cations, or 45 C with or without; settings: protein: recombinant; tags: Alexa488 label; chain copies: 2; label: Alexa488 on F3D47; 3' flap of 20 nt at ss/dsDNA junction; three strands
[3] = molecular target: T2, NucS (PabNucS);PCNA (PabPCNA) (Pyrococcus abyssi;Pyrococcus abyssi, UniProt Q9V2E8;Q9UYX8 1-251;1-249, |); assay: single-molecule TIRF (koff/kon); 45 C, PCNA, 5 mM MnCl2 (cleaving); koff 0.85 s-1; Imaging buffer B2: 20 mM HEPES, 150 mM NaCl (or 50 mM), 0.1 mg/ml casein Blocking Reagent; pH not given; 23 C without divalent cations, or 45 C with or without; settings: protein: recombinant;recombinant; tags: Alexa488 label;; chain copies: 2;3; label: Alexa488 on F3D47; 3' flap of 20 nt; three strands
T2 sequence 1: T1 sequence
T2 sequence 2: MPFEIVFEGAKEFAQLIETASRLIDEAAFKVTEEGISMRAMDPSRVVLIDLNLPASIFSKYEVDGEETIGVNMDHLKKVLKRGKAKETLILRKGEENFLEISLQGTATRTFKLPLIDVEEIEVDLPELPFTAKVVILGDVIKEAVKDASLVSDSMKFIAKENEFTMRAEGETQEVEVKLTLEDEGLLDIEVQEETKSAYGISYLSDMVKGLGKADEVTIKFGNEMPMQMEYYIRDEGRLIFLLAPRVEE

[4] = molecular target: T2, NucS (PabNucS);PCNA (PabPCNA); assay: single-molecule TIRF (koff/kon); 45 C, 50 nM PCNA, no Mn2+; koff 0.55 s-1; Imaging buffer B2: 20 mM HEPES, 150 mM NaCl (or 50 mM), 0.1 mg/ml casein Blocking Reagent; pH not given; 23 C without divalent cations, or 45 C with or without; settings: protein: recombinant;recombinant; tags: Alexa488 label;; chain copies: 2;3; label: Alexa488 on F3D47; 3' flap of 20 nt; three strands
NucS (PabNucS) [5] = molecular target: T1, NucS (PabNucS); assay: single-molecule TIRF (koff/kon); 45 C, no Mn2+, no PCNA; koff 0.027 s-1; Imaging buffer B2: 20 mM HEPES, 150 mM NaCl (or 50 mM), 0.1 mg/ml casein Blocking Reagent; pH not given; 23 C without divalent cations, or 45 C with or without; settings: protein: recombinant; tags: Alexa488 label; chain copies: 2; label: Alexa488 on F3D47; 3' flap of 20 nt; three strands
NucS (PabNucS) [6] = molecular target: T1, NucS (PabNucS); assay: single-molecule TIRF (koff/kon); 45 C, no Mn2+, no PCNA; koff 0.50 s-1; Imaging buffer B2: 20 mM HEPES, 150 mM NaCl (or 50 mM), 0.1 mg/ml casein Blocking Reagent; pH not given; 23 C without divalent cations, or 45 C with or without; settings: protein: recombinant; tags: Alexa488 label; chain copies: 2; label: Alexa488 on F5D42; 5' flap of 20 nt; three strands; D27 as printed has a mismatch to 49N
[7] = molecular target: T2, NucS (PabNucS);PCNA (PabPCNA); assay: single-molecule TIRF (koff/kon); 45 C, PCNA, no Mn2+; koff 0.90 s-1; Imaging buffer B2: 20 mM HEPES, 150 mM NaCl (or 50 mM), 0.1 mg/ml casein Blocking Reagent; pH not given; 23 C without divalent cations, or 45 C with or without; settings: protein: recombinant;recombinant; tags: Alexa488 label;; chain copies: 2;3; label: Alexa488 on F5D42; 5' flap of 20 nt; three strands; D27 as printed has a mismatch to 49N
[8] = molecular target: T2, NucS (PabNucS);PCNA (PabPCNA); assay: single-molecule TIRF (koff/kon); 45 C, PCNA, 5 mM MnCl2 (cleaving); koff 0.67 s-1; Imaging buffer B2: 20 mM HEPES, 150 mM NaCl (or 50 mM), 0.1 mg/ml casein Blocking Reagent; pH not given; 23 C without divalent cations, or 45 C with or without; settings: protein: recombinant;recombinant; tags: Alexa488 label;; chain copies: 2;3; label: Alexa488 on F5D42; 5' flap of 20 nt; three strands; D27 as printed has a mismatch to 49N
NucS (PabNucS) [9] = molecular target: T1, NucS (PabNucS); assay: single-molecule TIRF (koff/kon); 150 mM NaCl, 23 C, no divalent cations; koff 0.026 s-1; Imaging buffer B2: 20 mM HEPES, 150 mM NaCl (or 50 mM), 0.1 mg/ml casein Blocking Reagent; pH not given; 23 C without divalent cations, or 45 C with or without; settings: protein: recombinant; tags: Alexa488 label; chain copies: 2; label: Alexa488 on F5D42; 5' flap of 20 nt at ss/dsDNA junction; three strands; D27 as printed has a mismatch to 49N
NucS (PabNucS) [10] = molecular target: T1, NucS (PabNucS); assay: single-molecule TIRF (koff/kon); 50 mM NaCl, 23 C, no divalent cations; koff 0.35 s-1; Imaging buffer B2: 20 mM HEPES, 150 mM NaCl (or 50 mM), 0.1 mg/ml casein Blocking Reagent; pH not given; 23 C without divalent cations, or 45 C with or without; settings: protein: recombinant; tags: Alexa488 label; chain copies: 2; label: Alexa488 on F5D42; 5' flap of 20 nt at ss/dsDNA junction; three strands; D27 as printed has a mismatch to 49N
NucS (PabNucS) [11] = molecular target: T1, NucS (PabNucS); assay: single-molecule TIRF; 150 mM NaCl, 23 C; kon 0.04e6 M-1s-1, no significant binding; Imaging buffer B2: 20 mM HEPES, 150 mM NaCl (or 50 mM), 0.1 mg/ml casein Blocking Reagent; pH not given; 23 C without divalent cations, or 45 C with or without; settings: protein: recombinant; tags: Alexa488 label; chain copies: 2; duplex; strands as printed not perfectly complementary

NucS (from UniProt Q9V2E8)
Kd (PCNA (Pyrococcus abyssi)): 15 nM

B1: 3'-flap (49N/F3D47/D22) (structured_DNA)
DNA 1: AGCTACCATGCCTGCACGAATTAAGCAATTCGTAATCATGGTCATAGCT
DNA 2: AGCTATGACCATGATTACGAATTGCTTGGAATCCTGACGAACTGTAG
DNA 3: AATTCGTGCAGGCATGGTAGCT
modifications: biotin (two at each end of 49N)
Kd (NucS (PabNucS) [1]): 7.8 ± 0.3 nM
Kd (NucS (PabNucS) [2]): 17.7 ± 0.4 nM

B2: 3'-flap, one biotin (45 C) (structured_DNA)
DNA 1: B1 DNA 1
DNA 2: B1 DNA 2
DNA 3: AATTCGTGCAGGCATGGTAGCT
modifications: one biotin at the extremity
Kd [3]: 250 ± 47 nM
Kd [4]: 161 ± 29 nM
Kd (NucS (PabNucS) [5]): 12 ± 3 nM

B3: 5'-flap, one biotin (45 C) (structured_DNA)
DNA 1: B1 DNA 1
DNA 2: GATGTCAAGCAGTCCTAAGGAATTCGTGCAGGCATGGTAGCT
DNA 3: AGCTATGATCATGATTACGAATTGCTT
modifications: one biotin at the extremity
Kd (NucS (PabNucS) [6]): 625 ± 470 nM
Kd [7]: 195 ± 20 nM
Kd [8]: 145 ± 15 nM

B4: 5'-flap (49N/F5D42/D27) (structured_DNA)
DNA 1: B1 DNA 1
DNA 2: B3 DNA 2
DNA 3: AGCTATGATCATGATTACGAATTGCTT
modifications: biotin (two at each end of 49N)
Kd (NucS (PabNucS) [9]): 2.6 ± 0.2 nM
Kd (NucS (PabNucS) [10]): 9.4 ± 0.4 nM

B5: dsDNA (40N/40NC) (dsDNA)
DNA 1: CCTGCACGAATTAAGCAATTCGATATCATGGTCATAGCT
DNA 2: AGCTATGACCATGATTACGAATTGCTTAATTCGTGCAGG
modifications: biotin? (immobilized)
binding result (NucS (PabNucS) [11]): no binding
